Literature values in paper PMC3491057, “Proliferating Cell Nuclear Antigen (PCNA) Interactions in Solution Studied by NMR” (PLoS ONE, 2012).

Experiments:
[1] = target: p21 (p2120) 141-160 (Homo sapiens) (UniProt P38936)
[2] = target: p21 (p2122) 139-160 (Homo sapiens) (UniProt P38936)
[3] = target: p21 87-164 (Homo sapiens) (UniProt P38936)
[4] = target: Fen-1 (Homo sapiens) (UniProt P39748); experiment: SPR
Fen-1 (Homo sapiens), sequence (P39748 whole entry): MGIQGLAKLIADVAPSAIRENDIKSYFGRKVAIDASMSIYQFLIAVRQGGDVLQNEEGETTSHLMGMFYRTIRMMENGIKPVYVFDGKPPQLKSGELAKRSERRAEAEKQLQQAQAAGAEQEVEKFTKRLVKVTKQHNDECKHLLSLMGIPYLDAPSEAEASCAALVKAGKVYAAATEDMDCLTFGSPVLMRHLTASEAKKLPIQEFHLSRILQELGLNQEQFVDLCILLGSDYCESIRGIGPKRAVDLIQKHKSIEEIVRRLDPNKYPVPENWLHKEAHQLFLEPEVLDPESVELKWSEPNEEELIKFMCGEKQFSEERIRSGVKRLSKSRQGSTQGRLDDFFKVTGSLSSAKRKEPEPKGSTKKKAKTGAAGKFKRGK

PCNA, sequence (P12004 whole entry): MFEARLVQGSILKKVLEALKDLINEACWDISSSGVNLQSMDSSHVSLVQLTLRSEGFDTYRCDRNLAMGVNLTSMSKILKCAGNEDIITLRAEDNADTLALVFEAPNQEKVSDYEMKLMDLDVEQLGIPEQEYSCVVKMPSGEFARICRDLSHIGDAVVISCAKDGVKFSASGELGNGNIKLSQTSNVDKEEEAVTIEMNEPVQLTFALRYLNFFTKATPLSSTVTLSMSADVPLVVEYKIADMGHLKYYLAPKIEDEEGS
p21 (p2122) 139-160 (Homo sapiens), sequence (P38936 139-160): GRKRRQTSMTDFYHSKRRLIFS
p21 87-164 (Homo sapiens), sequence (P38936 87-164): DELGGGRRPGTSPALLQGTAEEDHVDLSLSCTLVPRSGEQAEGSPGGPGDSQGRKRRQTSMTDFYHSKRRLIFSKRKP
p21 (p2120) 141-160 (Homo sapiens), sequence (P38936 141-160): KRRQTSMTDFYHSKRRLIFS

PCNA (from UniProt P12004)
Kd [1]: 0.088 µM
Kd [2]: 0.083 µM
Kd [3]: 0.015 µM
Kd [4]: 0.06 µM
